Experiment [1] has as its target cytochrome f (Cytf, PetA), His-tagged, in the isolated cytochrome b6f complex (C. reinhardtii) (UniProt P23577).
Experiment [2] has as its target T1, cytochrome f (Cytf, PetA), His-tagged, in the isolated cytochrome b6f complex (C. reinhardtii, UniProt P23577 32-317).
T1 construct: cytochrome f (PetA) of C. reinhardtii, UniProt P23577; numbers count on: the mature protein (Y32 of P23577 = Y1); Stood in every assay as a subunit of the whole isolated Cytb6f complex, not as an isolated protein; Carries heme f; also called Cytb6f (as the subunit cross-linked); source: C. reinhardtii strain expressing His-tagged PetA; Cytb6f complex purified (tPCCαM solubilisation, NiNTA, …)
The experiment in a line: cross-linking; PC (100 µM) preactivated with 5 mM EDC and 10 mM NHS, pH 6.5 (MOPS), 20 min at room temperature; 5 mM ferricyanide added and cross-linker removed; added to isolated Cytb6f (2.7 µM) pre-reduced with 5 mM ascorbate; HEPES 30 mM pH 7.5, MgCl2, tPCCαM; 45 min at room temperature; read by SDS-PAGE (Coomassie, anti-Cytf blot) and by trypsin digestion with LC-MS/MS (MaxQuant and xiSEARCH). Particulars: both partners purified.

T1 sequence (P23577 32-317, one chain of several): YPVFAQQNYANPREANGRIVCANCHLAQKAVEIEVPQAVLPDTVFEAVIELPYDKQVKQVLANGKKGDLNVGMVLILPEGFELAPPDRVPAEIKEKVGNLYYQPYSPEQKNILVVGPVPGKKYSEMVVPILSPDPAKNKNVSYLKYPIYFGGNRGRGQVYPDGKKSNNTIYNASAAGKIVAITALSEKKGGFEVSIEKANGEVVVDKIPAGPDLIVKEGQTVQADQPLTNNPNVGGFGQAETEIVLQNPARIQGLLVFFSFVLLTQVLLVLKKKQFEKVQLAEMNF
Chain of cytochrome f (Cytf, PetA), His-tagged, in the isolated cytochrome b6f complex (C. reinhardtii) (P23577 32-317, one chain of several): as above

B1: plastocyanin (PC) S49D, recombinant phosphomimetic variant (natural protein)
chain: DATVKLGADSGALEFVPKTLTIKSGETVNFVNNAGFPHNIVFDEDAIPDGVNADAISRDDYLNAPGETYSVKLTAAGEYGYYCEPHQGAGMVGKIIVQ
As to B1, in experiment [1], the half-time of Cytf oxidation in the light (absorbance at 554 nm), isolated Cytb6f and PSI, 1 to 3 µM PC, 5 µM FDX is 120 ms.

B2: plastocyanin (PC) S49K, recombinant (natural protein, C. reinhardtii)
chain: DATVKLGADSGALEFVPKTLTIKSGETVNFVNNAGFPHNIVFDEDAIPKGVNADAISRDDYLNAPGETYSVKLTAAGEYGYYCEPHQGAGMVGKIIVQ
notes: plastocyanin of C. reinhardtii, UniProt P18068, with a point mutation S49K that adds a trypsin site; numbers count on: the mature protein (D48 of P18068 = D1); S49 is S96 in P18068 by the printed offset; Made from the WT Pet17b-PETE plasmid; the methods list codons only for S-to-A, S-to-E and S-to-D; also called mutated S49K PC; source: E. coli, recombinant (as the wild type PC)
Take B2: in experiment [2], the binding result was “binds”.

The values above are taken from PMC12341890, “Insights into plastocyanin–cytochrome b6f complex formation: The role of plastocyanin phosphorylation” (Plant Physiology, 2025).
